21 sequences from a protein production outcome set (Wang et al. 2014) can be followed below.

A short description of this series: label from the status in PepcDB records.
Take “MKGENAMEHHTSVLSLMVVVAIAFFVPLLLQRFKLKALPVVVAEIIAGIFVGKSGFNIIEPDIWLQVLSTLGFIFLMFLSGLEIDFSIFKQKGKKNTTNEPNTFQAASIIFLFIFILSYALSLLFVWLGFVDNAMFMTLIISTISLGVVVPTLKENNLGKTAIGQIILLVAVIADLVTMILLAVFVGLNSESGQSMWLLLLLFGAGIVIYFVAKRFKNIPYLDSLKAGSVQIDTRAVFALILILVGLSESVGAENILGAFLAGVLVSLLSPNEDMVEKLDSIGYGFFIPIFFVMVGVNLEVWSIFKEPSSMLMIPILIVGLFISKLLPSLVLRKWYPRNIVLGSAILLTSTLSLVIAAAQIGEKLEIISPSLSVSLILSAVITCIFAPILFKKMFPKVETPKPKVAIIGASRITLPLSLDLKREDYDVTLYMMRQNKINDEEATSHDFPIVKLDDITIASLTEQTAFDADRVVVATSDDEQNLLLAEHAKELGVEHVIASVEDPLLQEKATQEHIAVFSTINSTRILLRALIDKPSLVRLITTANETVREVELRSNKYNGVALRRLPFLGDVLVIQIYRGNKALIPHGDTRLQHGDTLLVTGSKEHIDTLKNILE”: the protein production result is “failed”.

As to “MRNVIAAVMASTLALSAYSQAAEVVTSVNWLPGDEGGQRGSQSHMFDGISLTEQQRQQLRDLMQRARHDRLPVNVSEMETMHRLVTAENFDENAVRAQAEKMAQEQVARQVEMAKVRNQMYHLLTPEQQAVLNAKHQQRMDQLREVARMQKGSAMMLSSSSNTLQPQ”, the protein production result was “failed”.

“MEQTDITSLIPIAITLIISLTTRNVVVGLFAGVLSGVAMLNGLFTTLGPFETFGVMVKSYISPQLTDSYNAGVIVLLVFIGGFVALMEKSGGGLAFAEKVTLWVKSKFQAQTSAWLGGIIIFFSDLGTPLIVGPVFRPLFDKLKISRQKLAFIIDSTSSPVAILIPFIGWGVYIMGLIQKEFTALNVTDITDWDAFLGAIPYQFYAILAIAIVPLVALKKLDFGPMAKAEAIASKGELHASSDISKEIFTHKNAKASFVWAPLLVMGAVLVFMLAPLGFPFEKVSGSVFRSALSTAYFFAAFTLIILMAMNKVRSLSDGISVYMKGMGNMMQVAIILILAWTLSSVGKELGAAAYIAEQAQNGFPYWLVPAVSFLLAAIISFATGSSWGTFAIMMHLVIPTAITIDAPMFVCIGAVLSGGLFGDHCSPISETTILSSTGAGCDQFEHFKTQLPYALLNGGIALVSFLIAGIFDNPLIFILALIAQVTLVVTLAKLTPENMFNKSKLVAGNQLG”: the protein production result is recorded as “failed”.

In the case of “MSPFTGSAAPTPEWRHLRVEITDGVATVTLARPDKLNALTFEAYADLRDLLAELSRRRAVRALVLAGEGRGFCSGGDVDEIIGATLSMDTARLLDFNRMTGQVVRAVRECPFPVIAALHGVAAGAGAVLALAADFRVADPSTRFAFLFTRVGLSGGDMGAAYLLPRVVGLGHATRLLMLGDTVRAPEAERIGLISELTEEGRADEAARTLARRLADGPALAHAQTKALLTAELDMPLAAAVELDASTQALLMTGEDYAEFHAAFTEKRPPKWQGR”, the protein production entry was “not failed”.

Regarding “MCPYITRRNDVMNDTFDYIFGYALSTALARYWVNPDGSQGGIVSIDAKIDASVMIGKDAVVFPDANIAERACIAEKVCIGNAVRIGKHAMIDHGASIGDRSNIGERSRIYQDSFIGENAVIAARACIGEKVYIGNFVSLAKDSIIDDGVNIGERSSIGERTRIRQGSFIRKGCVIRQRSVIAKRAYIDEGVYIGNVVRIGEESMIHRRSRIGSGARIGGSVCIGVYCRIDGSVRIGQHADIGEWVNIDGHARIGNFARIGEWSRIGGRANIAAHVVLEKQSIIHSETCIQDASKTSVDMPKDAGI”, the protein production result was “failed”.

With “TYNYYDHAASAGTGQYLNDVQVETIELPVDYDADFVIPVYGDSMEPKYHSGDYVFVKLSVELTDGDIGVFEYYGDAYIKQLLINDKGAFLHSLNQCGDYPDIPIDRDSDFRIIGEVMGSYRER”, the protein production entry is on record as “failed”.

Turning to “SLSRTVHHQQTAEITQQAADFIRYMNAINDYLYQHPERRAAGGQLTSAQLGLPATKNVSHLISQQRVFVWAKEKPGLMGALLEQSGDSALLARVENGRLLDTHGRRISITLPAVIPDQVIIWMN”, the protein production entry is “not failed”.

In the case of “MNTLSVLLSLFTVIVVQRVFKKLSISLLSGVIVMILSLKVRNILEIFFWTVSSDSFWSLIVTVFLIYLLSGMMEKSGDYSRFSEEMRTIFSKNVDSFVPALIGLMPMPGGALFTAPIVKNSLPEENSLKLAVKNYWFRHTIEFFWPIYPAVVLVSELSGIHPGKVSLTLFPVFAIAFFLGWFFFNGKQLPCLSKPRSFFNLFPLIPVLGTGVLILLFKVSGWFALLLSTSGYAVFRRRYLLKTLKQVFNKWDVFLVLFFVYIYKVVVEHSGVGEGIAAEFVRWNLSPWILLIFLPLVSGISTGITQAAVGISLPVLMEVFSSKYAVYTYMFAVGGVILSPVHLCVVLSAKFFEVEVFDILKKVFLPLVLTLILGALVLGVIL”, the protein production result is “failed”.

With “MHVYESDVSWIDDRRTEVSVGDHRIEVDSPPEFGGPEGQLYPETLFPSVLASCLLTTFLEFKDRMGINLKSWNSHVTAELGPSPEKGFKFHRIKIHVKIGVNDEDKEKIPRAMQLAEKYCFISRAIRNNVEEIVDYEFV”, the protein production entry is listed as “not failed”.

Turning to “MRPNLLEALRAMTEGELYAALYQDPLTGVLNRRAFAGAIEEARAVALVDMDSLKWINDNLGHRAGDRALRVLADGLVRSFGADWVFRVSGDEFAVMDGDAEQLAQRLLLLRSSVPGFSFGTGSDMAEADRDMRHDKAEREKSGHRAARGLRPPWVP”, the protein production result was “failed”.

As for “MKKKLFYYLFAVLCTATLFTSCSDDDDEVKYPIDTELAGGYVGNLSVNVDGNQMGTTENQKITISQSNKETNQIALSLKNFTFLVNVGDIEVDPCTVKAIDGGYAFEGQQNLDLVQPLGNCPVSISGTVKGSNINIEIGVKVGAPLNQNVKATFVGRKLTGSESSEAKIISFILDDDIVTEQPIINEEEGIVTFKVSDAAVDDDLSGMIPTIVVSSKAKITPASGVAQDFSNGKKVEYTVTAEDGTTKKYSVFIAGSSDYYSFETWKSLNDGAFEEPDGGWATSNTGVWFIKTVYPDVYNGDYPVVKSEDAKDGAVGVKLITLDTKGQAGADWGFIKIPAIPKVTSGSLFLGTFETDIQNTLNSTKFGNPYYSKPISVQFSYKYTPGAVYYTCPDPVKAEAVTEDPNTTDECSVTAVIYEVPYWETVDPDDANNKAYDKRLTGANLYTNTDQVIAMATFSSGVQEDYKDITLTLNYEKDYDPTKKYRFAIVFSSSKNGDKFSGAPGSTLIVDNVKVVAEK”, the protein production result was “failed”.

“MALMTMVQALNRALDEEMAKDPRVVVLGEDVGKRGGVFLVTEGLLQKYGPDRVMDTPLSEAAIVGAALGMAAHGLRPVAEIQFADYIFPGFDQLVSQVAKLRYRSGGQFTAPLVVRMPSGGGVRGGHHHSQSPEAHFVHTAGLKVVAVSTPYDAKGLLKAAIRDEDPVVFLEPKRLYRSVKEEVPEEDYTLPIGKAALRREGKDLTLIGYGTVMPEVLQAAAELAKAGVSAEVLDLRTLMPWDYEAVMNSVAKTGRVVLVSDAPRHASFVSEVAATIAEDLLDMLLAPPIRVTGFDTPYPYAQDKLYLPTVTRILNAAKRALDY”: the protein production result was “not failed”.

In the case of “MTIKSLLSDIEREERNVHKAIKDSVKRNDLVTAKALAREIVSSRRTVKRLYENKAQVNSISMHLGESIATAVTVGNLSKSGEVMKLVNSLMKAPEIAVTMQAFSKEMTKTGVIEEFVSDAVDNALDSEDIEEEIEEEVDKVLTAIAGETAAELPEAVRKQKMNVPAQKAETLHGEDAIVEGVDAEEELEAIRYRLANVRS”, the protein production result was “failed”.

As for “MNDTLLTTYTLAEGLHWLDLIGVLAFAMSGALLGVRKRFDLFGVLVLGAVTAVGGGAIRDSLTGQTPPLFLRDETYLWTALLGALLAFAFGERLARFERTLSLFDSAGLALFATSGALGAIKIGLGPLGVVFAGMLSGVGGGIIRDLIANEVPEVMYRRDQLYATAAAAGAGAVWLLAPHFTPFQAQAGGALLVLFLRWVSRRQWVRLPVRRLPE”, the protein production result was “failed”.

For the sequence “MDIVLIGGLWLNGSVWEGVASTLESLGHRPVPLTLPGQGDGAATATLDDQVAAVLAAVDAAPGRPMVVGHSAACALAWLAADRRPGRLAKVALIGGIPTPDGRPYADFFEVRDGVMPFPGWEPFQGPDAADLDEAARHELAAAAIPVPEAVARGVVRLSDERRYDVPVVVVCPEFTPAQARGWIDAGDVPELARAKHVDFADIDSGHWPMITKPAELARVLAAAAEGN”, the protein production result is “failed”.

As for “MGYLKNHWWKRWIRRRGCKLAGGPASVGKRTTLVLEERVELGHLRIVPPRLEIGAYSYVRSGTDLSLVASIGRFCSIGSDCFIGQEKHTHPSDWVSSHPFQHTGTALRYEPALSYAEIGHDVWIGHSAMVMEGVKVGTGAIIATRAVVTRDVPPYAIVAGTPAQVIRYRHPPEIIEGLLASRWWELDSAFLTGLPLDR”, the protein production result was “failed”.

Consider “QSLRSFQKQNEDNDKRQQILRSINVNVSSSEAETKYNELIKEAFLVNENGEKVEGDAFATDVVKAATEHQYPVFVANVDGQPKYIMALHGAGLWGPLWGYISVDSDKNTIYGADFSHQGETPGLGAEISKPVFSNEFKGKKIFMSGEFKSVAVVKPGKSVAGQDYVDGISGGTITSKGVDEMLFNSLSGYVKFLTSQN”, for which the protein production result is on record as “not failed”.

For the sequence “MKVLAVAYDPRDFGELATGVRDSLGDAELVFLAVHKAAEEPGKASGYSEKVFVSRTSSPESIALLLEKLISEEKPDIIVGEAYKNLRDALSRVAGKLDLPMATDVSSFSVENGKVKFRKGFLSEKAVMEAEIPKPAVILFLTRFTKPKEISPESQARIVELEPPQGETKVVETRPKEMGGANLEEAEIIVGVGRGFKSKEDLKLAFELAELLNAQIGCTRPIAADLKWLSEDHWIGISGKRVAPKLYLAIGISGSPQHMSGVQNAKIIVAVNKDKNAPIFKQADYGVVADLYQFIPVLIKKLRERKSN”, the protein production entry is given as “failed”.

Turning to “MACNTCKMCESADKKLESFVASKDVETAFHRTEDQKVKCGFGLQGVCCRLCSNGPCRVTPKSPRGICGADADTIVARNFLRAVASGAACYLHVVENTAKNLKNVGITKGVVKGEKTLNQLAEMFGIESDEKYDKCIKVADKVINDLYKSRDDKMELVEKIAYAPRVKKWKELGIMPGGAKSEVFDAIVKSSTNLNSDPVDMLVNCLNLGISTGLYGLTLTNLLNDVMLGEPVIRMAPVGFNVIDPDYINIMITGHQHSTFANFQDRLKDEDVIKLAQSVGAKGFKLVGCTCVGQDLQLRGEHYQEVFAGHAGNNFTSEAVLSTGAIDIVLSEFNCTIPGLEPIADKYKVKMVCLDDVAKKANAEYIGLDRSKLDELSNTLIEKALESYKERRGSIEIDIPKDHGFEQSLTGVSEKNLKAFLGDSWKPLINLIAEGKIKGVAAVVGCSNMTAGGHDVNTVELTKELIKKDIIVLSAGCSTGGLENVGLMSPGAEELAGENLKEVCKTLGIPPVLNFGPCLAIGRLEIVATELAAELGIDLPQLPLVLSAPQWLEEQALADGAFGLALGLPLHLALPPFITGGKLVTEVLTEKLKDLTGGHVIVNPDPKSSANQLEEIIIDRRKNLGLKDVECNA”, the protein production result is “failed”.

Turning to “MTSPKHPPIRRDWLSKILAGTLLGFTLALGCSGLLVLALPQLPLPVKAQLAMWVVMPLWLGVLSGCFAFRDGRRAWLWLGGATALVLDLLVVARLS”, the protein production entry was “failed”.

In the case of “MNTTDRDASHTLLEQVNQALQDNTPLRIRGGNSKAFLGREVTGEPLDTRAHRGIVSYDPTELVITARAGTPLSEVLQALDAAGQMLPCEPPDIGAATLGGVVAAGLSGPRRPWSGSVRDFVLGTRLITGLGKHLRFGGEVMKNVAGYDVSRLLTGSFGCLGVLTEVSLKVLPKPRLCSSIALEMDSARALACLAEWGQQPMPISAASHDGRVLRLRLEGGEGSVAAAHERLGGELIDATYWQQLNEQRLPFFFDPGPLWRVCVPADTGVLDLPGEQLIDWAGAQRWLKSDASGDAIRAMTASVGGHATCYSQGRDDSPFHPLTTPLLRYHQALKTRLDPQGIFNPGRLYREL”, the protein production result is reported as “failed”.
